B1: osteoadherin (natural protein)
chain: QYETYQWDEDYDQEPDDDYQTGFPFRQNVDYGVPFHQYTLGCVSECFCPTNFPSSMYCDNRKLKTIPNIPMHIQQLYLQFNEIEAVTANSFINATHLKEINLSHNKIKSQKIDYGVFAKLPNLLQLHLEHNNLEEFPFPLPKSLERLLLGYNEISKLQTNAMDGLVNLTMLDLCYNYLHDSLLKDKIFAKMEKLMQLNLCSNRLESMPPGLPSSLMYLSLENNSISSIPEKYFDKLPKLHTLRMSHNKLQDIPYNIFNLPNIVELSVGHNKLKQAFYIPRNLEHLYLQNNEIEKMNLTVMCPSIDPLHYHHLTYIRVDQNKLKEPISSYIFFCFPHIHTIYYGEQRSTNGQTIQLKTQVFRRFPDDDDESEDHDDPDNAHESPEQEGAEGHFDLHYYENQE
modifications: biotinylated (EZ-Link Sulfo-NHS-LC-Biotinylation kit); glycosylated
B2: biglycan (natural protein)
chain: DEEASGADTSGVLDPDSVTPTYSAMCPFGCHCHLRVVQCSDLGLKSVPKEISPDTTLLDLQNNDISELRKDDFKGLQHLYALVLVNNKISKIHEKAFSPLRKLQKLYISKNHLVEIPPNLPSSLVELRIHDNRIRKVPKGVFSGLRNMNCIEMGGNPLENSGFEPGAFDGLKLNYLRISEAKLTGIPKDLPETLNELHLDHNKIQAIELEDLLRYSKLYRLGLGHNQIRMIENGSLSFLPTLRELHLDNNKLARVPSGLPDLKLLQVVYLHSNNITKVGVNDFCPMGFGVKRAYYNGISLFNNPVPYWEVQPATFRCVTDRLAIQFGNYKK
modifications: biotinylated (EZ-Link Sulfo-NHS-LC-Biotinylation kit); glycosylated
B3: fibromodulin (natural protein)
chain: QYEDDPHWWFHYLRSQQSTYYDPYDPYPYETYEPYPYGVDEGPAYTYGSPSPPDPRDCPQECDCPPNFPTAMYCDNRNLKYLPFVPSRMKYVYFQNNQITSIQEGVFDNATGLLWIALHGNQITSDKVGRKVFSKLRHLERLYLDHNNLTRMPGPLPRSLRELHLDHNQISRVPNNALEGLENLTALYLQHNEIQEVGSSMRGLRSLILLDLSYNHLRKVPDGLPSALEQLYMEHNNVYTVPDSYFRGAPKLLYVRLSHNSLTNNGLASNTFNSSSLLELDLSYNQLQKIPPVNTNLENLYLQGNRINEFSISSFCTVVDVVNFSKLQVLRLDGNEIKRSAMPADAPLCLRLASLIEI
modifications: biotinylated (EZ-Link Sulfo-NHS-LC-Biotinylation kit); glycosylated

Target: recombinant UspA2 (ubiquitous surface protein A2), cloned from M. catarrhalis strain RH4 (Moraxella catarrhalis strain RH4)
Assay: ELISA

| Molecule | Kd |
| --- | --- |
| decorin (from UniProt P07585 31-359) (natural protein) | 293 nM |
| B1 | 231 nM |
| B2 | 89 nM |
| B3 | 202 nM |

From publication PMC6200642
